In patent publication US20070111281A1:

What was measured:
[1] = molecular target: shFcγRIIIa-H6 (soluble human FcγRIIIa with hexahistidine tag, Example 3) (human) (UniProt P08637); experiment: SPR (Biacore1000), receptor coupled to CM5 chip, IgG in flow, steady state
[2] = molecular target: shFcγRIIIa-Q162-H6 (soluble human FcγRIIIa lacking glycosylation at position 162, hexahistidine tag, Example 3) (human) (UniProt P08637); experiment: as above

Substance	Kd [1] [nM]	Kd [2] [nM]
IgG mutant 9 H268D, non-GE glycoform (antibody)	124	87.3
IgG mutant 20 S239W, non-GE glycoform (antibody)	688	372
IgG mutant 22 F243E, non-GE glycoform (antibody)	887	428
IgG mutant 30 H268E, non-GE glycoform (antibody)	189	152
IgG mutant 43 S239D, non-GE glycoform (antibody)	85.7	122
IgG mutant 85 F243H, non-GE glycoform (antibody)	542	382
IgG mutant 88 T260H, non-GE glycoform (antibody)	276	290
IgG mutant 98 S239E, non-GE glycoform (antibody)	155	170
control antibody (humanized IgG1), non-GE glycoform	246	214
